According to publication PMC6181439:

Biological target: Recombinant mouse PrP lacking FT (90-230) (mouse) (UniProt P04925)
Experiment: SPR
Conditions: bispecific antibody

Work on “scPOM-bi, POM1-POM2 bispecific single chain antibody” yielded a Kd of 3.6 nM and a koff of 0.00031 s⁻¹.
